According to the domain aggregation screens of Martell et al. (2025):

Experiment: soluble fraction after stress (log2 fold change); higher = more stays soluble; pooled small domains, quantitative proteomics
Conditions: stress: 50 degC
Procedure, shortened: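 Pooled custom libraries of small protein domains were measured in a high-throughput format, with quantitative proteomics as the read-out. Each library was stressed at 50°C. Aggregation propensity is given as the base-two logarithm of the fold change in how much of each protein stays soluble after the stress. Higher values mean a larger share of the protein remains in solution.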

Sequence	soluble fraction (log2)
HMPTEPTARELEVTTLLAQGLSNREIAGALFISEHTVRNHLGHVFSKLGVSSRTQAVVRAGQLGWLR	-2.14
HMQISDEAALLAIVDRVIADNQGPLANYLGGKQSLLGWFVGQVMRATRGQAIPAVVNRLVGERLAAQREE	-0.627
HMDISEIEKRLLDFLEMPRSRKEIAEHLGIRTISYAIQTYITPLIDKKLVKMTIPESPRSHSQQYVRIN	-0.92
HMQQVDWGSVFGDFGTMFKDQLQPTIDRLRRMAQSDTFRQSSLEEQQILYSLIEKLERSGTA	-1.03
HMVTEKPLYRDELMDHDTVWVEPISMDSHLRMELRGWYHVKNRFVENEVGQRFYFDFYDIKWLAFTNGP	-2.08
HMNKEQIASNIAEARKRSGLNQSELARRLGIRPQSVQQWEKGTATPKLDRLTAIAQVLGVSLESLTG	-0.0259
HMSMEQAKAEEIEKLGDNAPERLQAAALFAEKFFPQDVMDAVYKITETADGVRAIEHIMQTVK	-1.28
HMKKLTAEEIQEAKDILEKIQEIPNFKKIFGDDTIKALENSTKTGVLLPDNIISKIHTLMIRFGIK	0.237
HMDLFREERRQAILDWLATAGRVSVAELSASFGVSEVTVRADLQALADRRLVVRTHGGAMMAG	-1.43
HMKIATIELVKEAVKSKLGKFTKRDIMELVPSVGKTTIENMLKQLIGEGYIERHGKGRATFYVK	-0.56
HMSAAIGEAVIATDEINVRSGPGLSHEIVSVVSRNESYPILEERGDWVQIQLNGGQKGWVVSWLIKKKS	0.169
HMSYPTAVTQTTLNVRTGPGTQYERLGAFVENTEVIVLTRQPEWIQVRGMSGDKAIIGWVSARYLQMNP	-0.457
HMPRQREVPDVSGWTEQHAKVYLEALGYRVKVIYLEVSSFDKGLVQETSPAKGSKVEEGDTIDLRVSNQE	-0.367
HMGIQQNHMTLHARSVASSANVPAEHFDTLVEKLIESGDIKVWKAREILMNLSRQHEEILDES	0.0119
HMKNNNIIFSEFLKEVENGRVVEVRIQGNNIQGIMSNGKEFTTYSPNYPNLIEKLTETGVSISAAPL	0.0449
HMENRREYQKAIDYLSDQIRAGTLTVGSRLPTERAIAEALGISRNSTREALRTMENMGMIESKQGSGHYLT	-0.00154
HMAGSGDLNAKYLASIPAPMKAKILKAVANHYGVSISEFEEEVTDKDAEALYEYIPTRSMAVQVLRDMKG	-0.373
HMQVPVNVSMEILDWVIAHIKIDALPNQIREYLNLWVNGEKEPTFNQVEKVSKATGIPLGYFFLQTPPIED	-1.66
HMIPLSDEETILLKLLEATETHLDALIRGSQLSAAKVSVVLMGMEMKRLVKRLPGQMYQRWD	-1.84

Sequence	soluble fraction (log2)
HMKDHLRFEILSFAGDLRNGVVKTRQEFETIFAFYDKYEEIITALKVHNGYVDSEFDFIKEKFKELKSK	-1.92
HMFMVAGHLSEKNGYFYAVINYNDSLGNRKTKWMSTGLTVKGNKKRAEAILAEKRRTFQPDEPV	-1.69
HMETFNMTQKEITRLRVINQAIDKVITIREAAELLGLSERQVIRLKGGVEKFGPAFIIHKNRGRKP	-0.71
HMNYVFVLNEHGVRQTSYVVGLHADTLEKTEKLAKQTYPTSTIISGDSEMQSQFISGKAYVNGEFVDP	-0.471
HMEEDPIIIAQRFLNIFRQLHIFSEEKKESFNKMLLEQPAEIRGALRSLPGGGLLQDYIDDLESKA	-0.151
HMYFMDEETWESKKTLLNDWYEANPEYADRRAISDGLFKIGDLQPDFRRRHWGSIGVIFADIPNSPMG	-0.915
HMAEPIEKIIIEGNQRIEALTIQSYLLLRVGEPFNRQLMNQTLKSLYATGYFSDVAVTRVSSSLLVK	0.133
HMLEPGQKVKSVVVDISGDLIYIDLGGKTEGVVELKEFYDEAGEYHVKPGDEIEVFFVSVQNGLKRFTT	-0.0167
HMTDVHFIDVPVSEGHPWIGLTVKDLNLPPGTLLVFLNHPGEKSTVPNGDTVLREGDVLVLGATAYAG	-0.0795
HMERFLENAIPVLGETGLDIKSATEDFENALIRQALHLSGGNKNRAATLLGLKRTTFVEMLKRKSL	-0.806
HMFPTLSPEEQRIVDQLAKENDLQANVIALRTALTIPQISALLFSLEMKGMVRLYAGGTYHLI	-2.81
HMERPYNGKQMEYHEGGVEKKETLFVEGGLSRVIQWDESGQKRSEVNISPTGVRREQYWDSSGKAIAKPS	0.228
HMKKPLEYIDVDKREDFPPVPNGMRYIHFYGGTKNYRAYIAPEDISRADFMEQYPEYVPEHN	0.184
HMRQEIIEDSRKLLEESLKRYDLTYQEFIDTLKSKNMNVESTLINIIKNQSSLDLVLRNLGLIAP	-0.0959
HMTLQEFYARVGGDYNATLSRLPSEALVKKFILKYPGDPSFAQLKDALAAQDWELAFRASHTLKGVAQN	-1.3
HMSVTPLLDATEKDKTKYRDLWLVAVVKNGVNYARKYKFGYVYAWLYRHDRDWLLQVNNQHKIPNIT	0.127
HMTLTIEDQLRRLRARLGRGRAFLFSDVLVNPHDRTEIAVTLLALLELIKRREAQASQSYLFGPIEVAAA	-1.94
HMEWNPEKQHLLENYITNYSRQLNDTGLFYKNLDWNYIFNLVGVDDQEFLMLKIDEIYDESINVY	-0.521
HMSSVVVARTWTDTTGDFKVEAELLGVEGGLVRLKKEDGTVLSVPIAKLSTADRTFLQENQP	0.144
